4 variants from IntAct's records for PubMed 24056087 can be followed below.

The chains are these.
B1: ADP-ribosylation factor 6 (Homo sapiens), P62330 (parent)
chain: MGKVLSKIFGNKEMRILMLGLDAAGKTTILYKLKLGQSVTTIPTVGFNVETVTYKNVKFNVWDVGGQDKIRPLWRHYYTGTQGLIFVVDCADRDRIDEARQELHRIINDREMRDAIILIFANKQDLPDAMKPHEIQEKLGLTRIRDRNWYVQPSCATSGDGLYEGLTWLTSNYKS
partner: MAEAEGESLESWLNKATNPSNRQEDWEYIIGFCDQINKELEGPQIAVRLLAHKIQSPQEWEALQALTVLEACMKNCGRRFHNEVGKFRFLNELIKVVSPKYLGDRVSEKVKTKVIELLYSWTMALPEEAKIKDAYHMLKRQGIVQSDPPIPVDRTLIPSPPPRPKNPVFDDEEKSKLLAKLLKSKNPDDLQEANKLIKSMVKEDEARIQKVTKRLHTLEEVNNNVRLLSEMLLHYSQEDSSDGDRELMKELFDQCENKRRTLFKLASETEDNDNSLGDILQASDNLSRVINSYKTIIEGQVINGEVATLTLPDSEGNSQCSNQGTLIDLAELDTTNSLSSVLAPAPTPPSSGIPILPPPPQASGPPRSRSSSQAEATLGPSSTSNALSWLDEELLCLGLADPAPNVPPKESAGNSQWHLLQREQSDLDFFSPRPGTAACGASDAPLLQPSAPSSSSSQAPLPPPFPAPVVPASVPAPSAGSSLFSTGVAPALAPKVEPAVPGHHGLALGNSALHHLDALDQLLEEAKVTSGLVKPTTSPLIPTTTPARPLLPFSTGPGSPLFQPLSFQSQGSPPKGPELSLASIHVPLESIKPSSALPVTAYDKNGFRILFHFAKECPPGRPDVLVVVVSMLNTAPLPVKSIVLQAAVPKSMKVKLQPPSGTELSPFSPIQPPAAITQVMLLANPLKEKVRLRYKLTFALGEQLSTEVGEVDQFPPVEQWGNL
B2: ADP-ribosylation factor 6 (Homo sapiens), P62330 (parent)
chain: B1 chain
partner: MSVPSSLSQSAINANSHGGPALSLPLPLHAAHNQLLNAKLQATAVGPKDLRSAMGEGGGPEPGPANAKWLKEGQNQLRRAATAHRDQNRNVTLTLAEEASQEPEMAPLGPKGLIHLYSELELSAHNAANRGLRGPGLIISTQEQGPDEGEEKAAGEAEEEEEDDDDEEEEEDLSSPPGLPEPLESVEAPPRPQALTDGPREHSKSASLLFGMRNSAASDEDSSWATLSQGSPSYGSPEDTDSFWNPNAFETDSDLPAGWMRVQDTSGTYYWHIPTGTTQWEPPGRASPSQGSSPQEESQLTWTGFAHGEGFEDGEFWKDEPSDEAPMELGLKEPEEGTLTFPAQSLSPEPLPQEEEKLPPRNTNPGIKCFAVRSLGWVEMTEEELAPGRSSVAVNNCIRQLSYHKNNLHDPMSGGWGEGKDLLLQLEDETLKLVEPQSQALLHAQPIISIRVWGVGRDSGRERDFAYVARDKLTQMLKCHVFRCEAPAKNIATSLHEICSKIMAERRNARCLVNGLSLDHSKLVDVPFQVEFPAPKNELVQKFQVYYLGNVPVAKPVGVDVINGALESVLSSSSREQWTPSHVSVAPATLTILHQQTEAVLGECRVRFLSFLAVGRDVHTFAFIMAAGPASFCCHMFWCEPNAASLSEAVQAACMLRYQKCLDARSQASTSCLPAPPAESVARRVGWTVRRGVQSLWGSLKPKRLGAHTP

The variants in one assay derive from B1. The settings on record: with gga3_human GGA3, Q9NZ52.
For the variant T27N, the “effect of a mutation on the interaction” value was “decreasing interaction strength”.
Still for that read-out and setting: with Q67L the entry was “increasing interaction strength”.

In another assay the parent is B2. Particulars: with apbb1_human APBB1, O00213.
On to Q67L, for which the “effect of a mutation on the interaction” value is “disrupting interaction strength”.
Still for that read-out and setting: to T27N belongs “increasing interaction strength”.
